Measured values published in US20250043022A1 (JIANGSU HENGRUI PHARMACEUTICALS, published 2025).

Assays:
[1] = biological target: T1, human PSMA on cells (Cho-hPSMA, CHO-K1 cells overexpressing full-length human PSMA) (human, UniProt Q04609 1-750); assay: hybridoma screening on cells
T1 construct: whole, on cells; also called cell surface PSMA; PSMA-expressing Lncap cells

[2] = biological target: hIL5 (human, UniProt P05113 20-134); assay: ELISA
[3] = biological target: hTSLP (human, UniProt Q969D9 29-159); assay: ELISA

T1 sequence (Q04609 whole entry): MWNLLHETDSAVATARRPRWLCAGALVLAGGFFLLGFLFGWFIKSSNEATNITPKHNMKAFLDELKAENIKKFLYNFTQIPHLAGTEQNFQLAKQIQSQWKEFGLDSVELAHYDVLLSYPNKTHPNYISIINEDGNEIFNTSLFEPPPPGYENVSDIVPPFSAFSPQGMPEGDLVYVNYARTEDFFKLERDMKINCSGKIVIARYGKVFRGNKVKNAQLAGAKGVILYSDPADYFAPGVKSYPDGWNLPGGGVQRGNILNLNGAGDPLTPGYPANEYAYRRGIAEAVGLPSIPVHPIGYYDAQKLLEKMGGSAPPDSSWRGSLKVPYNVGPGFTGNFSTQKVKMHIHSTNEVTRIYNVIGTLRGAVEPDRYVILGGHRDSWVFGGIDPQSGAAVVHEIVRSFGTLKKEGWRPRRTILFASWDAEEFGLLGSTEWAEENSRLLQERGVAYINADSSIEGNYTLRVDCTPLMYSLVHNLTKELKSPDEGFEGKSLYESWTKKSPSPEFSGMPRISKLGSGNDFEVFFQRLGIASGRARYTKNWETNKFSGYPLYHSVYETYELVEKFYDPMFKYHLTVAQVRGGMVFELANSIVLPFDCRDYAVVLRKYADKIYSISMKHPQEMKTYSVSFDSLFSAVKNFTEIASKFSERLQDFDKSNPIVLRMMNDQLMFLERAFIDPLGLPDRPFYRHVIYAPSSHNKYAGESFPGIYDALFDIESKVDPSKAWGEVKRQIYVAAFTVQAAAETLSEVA

Binder | binding result [1] | EC50 [2] [nM] | EC50 [3] [nM]
murine antibody 2 (antibody, V domains shown, murine hybridoma antibody) VH: EVKLVESEGGLVQPGSSMKLSCTASGFTFSDYYMAWVRQVPEKGLEWVANINFDGSSTYYLDSLKSRFIISRDNAKNILYLQMSSLKSEDTATYYCARDLDGYYGYFDVWGTGTTVTVSS VL: QIVLTQSPAIMSASPGEKVTISCSASSSVSHMYWYQQKPGSSPKPWIYRTSNLASGVPARFSGSGSGTSYSLTISSMEAEDAATYYCQQYHSYPLMFGAGTKLELK | binds | – | –
murine antibody 27 (antibody, V domains shown, murine hybridoma antibody) VH: EVKLVESEGGLVQPGSSMKLSCTASGFTFSDYYMAWVRQVPEKGLEWVANINYDGSSTYYLDSLKSRFIISRDNAKNILYLQMSSLKSEDTATYYCARDLDGYYGYFDVWGTGTTVTVSS VL: QIVLTQSPAIMSASPGEKVTISCSASSSVSYMYWYQQKPGSSPKPWIYRTSNLASGVPARFSGSGSGTSYSLTISSMEAEDAATYYCQQYHSYPLTFGAGTKLELK | binds | – | –
HJ-10 (bispecific antibody) chain 1: not shown chain 2: DIQMTQSPSSVSASVGDRVTITCRASQDIANYLSWYQQKPGKSPKLLIYGTSNLEVGVPSRFSGSRSGTDFTLTISSLQPEDFATYYCLQDKEFPRTFGGGTKVEIKRTVASSGAPRFLTRPKASVVSVGKDATLSCQIVGNPFPQVSWEKDKQPVTAGVRFRLAQDGDLYRLKILDLQLSDSGQYVCRARNAHGEAFACLGLQVDAEA chain 3: EVQLVQSGAEVKKPGSSVKVSCKASGYTFSNYLIEWVRQAPGQGLEWIGVIDPGVGDTNYNENFKGRATLTADKSTSTAYIELSSLRSEDTAVYYCAREDNTGTAFDYWGQGTTVTVSSASTKGPSVFPLAPSSKSTSGGTAALGCLVKDYFPEPVTVSWNSGALTSGVHTFPAVLQSSGLYSLSSVVTVPSSSLGTQTYICNVNHKPSNTKVDKKVEPKSCDKTHTCPPCPAPEAAGGPSVFLFPPKPKDTLMISRTPEVTCVVVDVSHEDPEVKFNWYVDGVEVHNAKTKPREEQYNSTYRVVSVLTVLHQDWLNGKEYKCKVSNKALPAPIEKTISKAKGQPREPQVCTLPPSREEMTKNQVSLSCAVKGFYPSDIAVEWESNGQPENNYKTTPPVLDSDGSFFLVSKLTVDKSRWQQGNVFSCSVMHEALHNHYTQKSLSLSPGK chain 4: SIVMTQTPLSLSVTPGQPASISCKASQSVSSDVTWYLQKPGQSPQLLIYYVSEHYTGVPDRFSGSGYGTDFTLKISRVEAEDVGVYYCQQHHRFPLTFGQGTKLEIKRTVAAPSVFIFPPSDEQLKSGTASVVCLLNNFYPREAKVQWKVDNALQSGNSQESVTEQDSKDSTYSLSSTLTLSKADYEKHKVYACEVTHQGLSSPVTKSFNRGEC | – | 20.8 | 3.17
HJ-11 (bispecific antibody) chain 1: not shown chain 2: DIQMTQSPSSVSASVGDRVTITCRASQDIANYLSWYQQKPGKSPKLLIYGTSNLEVGVPSRFSGSRSGTDFTLTISSLQPEDFATYYCLQDKEFPRTFGGGTKVEIKRTVASSGCPRFLTRPKASVVSVGKDATLSCQIVGNPFPQVSWEKDKQPVTAGVRFRLAQDGDLYRLKILDLQLSDSGQYVCRARNAHGEAFACLGLQVDAEA chain 3: EVQLVQSGAEVKKPGSSVKVSCKASGYTFSNYLIEWVRQAPGQGLEWIGVIDPGVGDTNYNENFKGRATLTADKSTSTAYIELSSLRSEDTAVYYCAREDNTGTAFDYWGQGTTVTVSSASTKGPSVFPLAPSSKSTSGGTAALGCLVKDYFPEPVTVSWNSGALTSGVHTFPAVLQSSGLYSLSSVVTVPSSSLGTQTYICNVNHKPSNTKVDKKVEPKSCDKTHTCPPCPAPEAAGGPSVFLFPPKPKDTLMISRTPEVTCVVVDVSHEDPEVKFNWYVDGVEVHNAKTKPREEQYNSTYRVVSVLTVLHQDWLNGKEYKCKVSNKALPAPIEKTISKAKGQPREPQVCTLPPSREEMTKNQVSLSCAVKGFYPSDIAVEWESNGQPENNYKTTPPVLDSDGSFFLVSKLTVDKSRWQQGNVFSCSVMHEALHNHYTQKSLSLSPGK chain 4: SIVMTQTPLSLSVTPGQPASISCKASQSVSSDVTWYLQKPGQSPQLLIYYVSEHYTGVPDRFSGSGYGTDFTLKISRVEAEDVGVYYCQQHHRFPLTFGQGTKLEIKRTVAAPSVFIFPPSDEQLKSGTASVVCLLNNFYPREAKVQWKVDNALQSGNSQESVTEQDSKDSTYSLSSTLTLSKADYEKHKVYACEVTHQGLSSPVTKSFNRGEC | – | 9.46 | 3
